The results in this text go back to EP3228631A2 (TLA Targeted Immunotherapies AB, dated 2017).

For assay [1], the target named is CCR5 (human) (UniProt P51681). Description: blood passed through the biotinylated RANTES coupled matrix column; flow cytometry for CCR1, 3 or 5-expressing cells; one healthy donor. (In flow cytometry, cells or beads pass a laser one at a time.)
The target of assay [2] is CCR3 (human) (UniProt P51677). The assay is described as above.
Assay [3] has as its target T1, CCR1 (human) (UniProt P32246).
T1 sequence (looked up): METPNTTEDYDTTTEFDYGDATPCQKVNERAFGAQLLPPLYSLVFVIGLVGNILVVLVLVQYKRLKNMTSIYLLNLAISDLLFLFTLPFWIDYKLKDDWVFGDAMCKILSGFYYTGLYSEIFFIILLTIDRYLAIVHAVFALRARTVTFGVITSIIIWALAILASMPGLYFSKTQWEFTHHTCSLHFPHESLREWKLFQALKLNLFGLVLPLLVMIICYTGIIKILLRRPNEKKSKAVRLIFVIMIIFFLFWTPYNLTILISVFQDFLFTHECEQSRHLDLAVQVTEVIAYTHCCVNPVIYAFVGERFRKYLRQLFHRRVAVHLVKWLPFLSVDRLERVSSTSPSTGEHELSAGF
The assay is described as above.

Assay [4] deals with CCR5 (human) (UniProt P51681). Kind of assay: cell-based or functional assay.
Assay [5] addresses hCXCR1 (human) (UniProt P25024). Kind of assay: cell-based or functional assay.
Assay [6] has as its target CCR3 (human) (UniProt P51677). Description: blood passed through the eotaxin coupled matrix (MACS beads, magnetic separator); flow cytometry before and after; one healthy donor.
Assay [7] has as its target T2, CCR7 (human, UniProt P32248 25-378).
T2 sequence (looked up): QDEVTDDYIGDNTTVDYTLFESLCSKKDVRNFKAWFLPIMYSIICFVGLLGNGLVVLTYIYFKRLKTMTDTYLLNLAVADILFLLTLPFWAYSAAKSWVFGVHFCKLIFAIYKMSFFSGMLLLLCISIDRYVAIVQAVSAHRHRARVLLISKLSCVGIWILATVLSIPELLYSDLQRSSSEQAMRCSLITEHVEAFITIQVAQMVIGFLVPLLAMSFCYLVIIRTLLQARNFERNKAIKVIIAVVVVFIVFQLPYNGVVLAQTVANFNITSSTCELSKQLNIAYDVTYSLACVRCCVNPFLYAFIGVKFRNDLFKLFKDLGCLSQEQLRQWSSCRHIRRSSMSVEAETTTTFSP
Kind of assay: cell-based or functional assay.

The target in assay [8] is CCR3 (human) (UniProt P51677). Description: cell-based or functional assay.
In assay [9] the target is T3, hCCR2b (human, UniProt P41597 1-374).
T3 chain: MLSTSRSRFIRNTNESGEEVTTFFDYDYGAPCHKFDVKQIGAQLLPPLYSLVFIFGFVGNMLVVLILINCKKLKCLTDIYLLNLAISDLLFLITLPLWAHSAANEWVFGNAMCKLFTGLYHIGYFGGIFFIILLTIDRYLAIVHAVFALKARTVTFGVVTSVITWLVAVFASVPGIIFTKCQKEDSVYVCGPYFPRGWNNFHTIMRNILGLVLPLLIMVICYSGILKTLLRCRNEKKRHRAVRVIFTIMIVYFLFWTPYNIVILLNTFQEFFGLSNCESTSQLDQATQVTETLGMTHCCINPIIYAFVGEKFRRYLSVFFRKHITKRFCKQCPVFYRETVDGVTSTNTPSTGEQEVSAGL
Kind of assay: cell-based or functional assay.

Sequence of CCR3 (human) (P51677 whole entry): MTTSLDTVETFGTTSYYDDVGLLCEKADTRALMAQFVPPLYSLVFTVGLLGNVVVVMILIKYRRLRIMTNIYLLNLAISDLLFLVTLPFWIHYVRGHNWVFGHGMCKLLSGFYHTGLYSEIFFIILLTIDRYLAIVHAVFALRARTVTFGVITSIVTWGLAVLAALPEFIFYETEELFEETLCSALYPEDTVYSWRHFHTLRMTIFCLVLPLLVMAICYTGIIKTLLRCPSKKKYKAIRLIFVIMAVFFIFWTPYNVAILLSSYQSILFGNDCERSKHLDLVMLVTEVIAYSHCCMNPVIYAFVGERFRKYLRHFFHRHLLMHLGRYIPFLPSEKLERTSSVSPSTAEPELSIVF
Sequence of CCR5 (human) (P51681 whole entry): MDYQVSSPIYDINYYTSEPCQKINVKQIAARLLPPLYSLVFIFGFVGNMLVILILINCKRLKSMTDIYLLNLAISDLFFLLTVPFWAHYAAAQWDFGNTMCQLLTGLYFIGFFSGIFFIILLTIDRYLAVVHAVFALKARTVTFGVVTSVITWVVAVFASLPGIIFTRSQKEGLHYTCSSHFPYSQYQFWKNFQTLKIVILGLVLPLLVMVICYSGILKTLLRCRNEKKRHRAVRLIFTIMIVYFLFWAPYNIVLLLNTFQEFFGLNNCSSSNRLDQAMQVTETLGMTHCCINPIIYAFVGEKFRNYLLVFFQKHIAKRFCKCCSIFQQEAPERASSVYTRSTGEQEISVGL
Sequence of hCXCR1 (human) (P25024 whole entry): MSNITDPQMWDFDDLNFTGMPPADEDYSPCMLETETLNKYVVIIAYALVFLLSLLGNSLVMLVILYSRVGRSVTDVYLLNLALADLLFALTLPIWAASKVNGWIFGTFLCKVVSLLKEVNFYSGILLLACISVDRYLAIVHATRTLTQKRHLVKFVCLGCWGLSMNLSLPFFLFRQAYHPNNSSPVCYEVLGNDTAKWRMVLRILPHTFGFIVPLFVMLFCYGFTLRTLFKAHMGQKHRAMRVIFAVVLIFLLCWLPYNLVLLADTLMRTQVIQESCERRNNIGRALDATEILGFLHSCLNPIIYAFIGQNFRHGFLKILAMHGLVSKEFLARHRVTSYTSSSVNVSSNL

Take “biotinRANTES (RANTES derivatised at the ε-amino side chain functionality of Lys(67) with Biotin) (from UniProt P13501 24-91) (ligand)”: the reduction of chemokine receptor-expressing cells by the column in assay [1], in assay [2] and in assay [3] was 20% each time. The same molecule showed an EC50, agonist activity, Aequorin assay in assay [4] of 0.5 nM. For “recombinant native IL-8 (from UniProt P10145 28-99) (ligand)”, the EC50, Aequorin assay in assay [5] is 4.2 nM.

Turning to “biotinylated eotaxin (from UniProt P51671 24-97) (ligand)”, in [6], the reduction of CCR3-expressing cells by the column worked out at 25%. In assay [7], “recombinant native MIP-3β (from UniProt Q99731 22-98) (ligand)” returned an EC50, Aequorin assay of 1.6 nM. For the molecule “recombinant native eotaxin (from UniProt P51671 24-97) (ligand)”, the EC50, agonist, Aequorin assay in assay [8] amounted to 10.7 nM.

In the case of “biotinIL-8 (6-78) (IL-8 (6-78) derivatised at the ε-amino side chain functionality of Lys(78) with PEG-Biotin) (from UniProt P10145 28-99) (ligand)”, the EC50, agonist activity, Aequorin assay in assay [5] amounted to 6.1 nM.

B1: recombinant native MCP-2 (ligand, human, UniProt P80075 24-99, looked up)
chain: QPDSVSIPITCCFNVINRKIPIQRLESYTRITNIQCPKEAVIFKTKRGKEVCADPKERWVRDSMKHLDQIFQNLKP
Regarding B1, in assay [9], the “EC50, partial agonist, Aequorin assay” value was determined as 23.5 nM.

B2: biotinMIP-3β (MIP-3β derivatised at the ε-amino side chain functionality of Lys(78) with Biotin) (ligand)
chain: GTNDAEDCCLSVTQKPIPGYIVRNFHYLLIKDGCRVPAVVFTTLRGRQLCAPPDQPWVERIIQRLQRTSAKMKRRSSX
modifications: X78 = K(Biotin) (additional C-terminal lysine, biotinylated); C-terminal amide (Rink Amide resin)
In the case of B2, the “EC50, agonist activity, Aequorin assay” value in assay [7] amounted to 11 nM.
